Assay results as given in patent US20200262877A1, “ION CHANNEL-BINDING PEPTIDES AND METHODS OF USE THEREOF” (priority 2017, published 2020).

What was measured:
[1] = target: T1, α4β2 (Homo sapiens, UniProt P17787+P43681); test: Ion channel panel (IonWorks Barracuda): α4β2; type: cell-based; settings: 100% = no change, <100% = inhibition
T1 construct: host or cells: HEK293 or CHO
Outline: (§1)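 Transfected HEK293 or CHO cells were exposed for at least 5 min to peptides at 200 nM and 20 μM final, tested in duplicate, in HEPES-buffered physiological saline. Activation was taken as peptide-plus-agonist current over control current ×100, and inhibition as 1 minus that ratio ×100. Each channel's control was its own reference compound.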

[2] = target: T2, 5HT3a (Homo sapiens, UniProt P46098); test: Ion channel panel (IonWorks Barracuda): 5HT3a; type: cell-based
T2 construct: host or cells: HEK293 or CHO
T2 sequence (P46098 whole entry, looked up): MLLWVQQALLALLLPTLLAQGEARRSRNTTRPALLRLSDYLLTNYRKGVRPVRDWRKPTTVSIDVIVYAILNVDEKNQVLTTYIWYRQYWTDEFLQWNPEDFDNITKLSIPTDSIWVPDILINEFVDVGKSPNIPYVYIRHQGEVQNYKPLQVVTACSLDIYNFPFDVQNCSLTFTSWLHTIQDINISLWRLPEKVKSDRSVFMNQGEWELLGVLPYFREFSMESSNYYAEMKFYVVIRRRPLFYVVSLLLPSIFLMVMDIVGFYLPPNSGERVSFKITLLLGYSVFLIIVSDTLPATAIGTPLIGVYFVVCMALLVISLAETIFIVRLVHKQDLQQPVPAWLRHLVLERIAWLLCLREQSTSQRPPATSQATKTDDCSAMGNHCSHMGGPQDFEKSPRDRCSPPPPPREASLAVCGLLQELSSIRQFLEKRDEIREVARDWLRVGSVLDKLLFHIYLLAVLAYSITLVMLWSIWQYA
Outline: as §1

[3] = target: hERG (Homo sapiens, UniProt Q12809); test: in vitro; settings: 100% = no change, <100% = inhibition
Outline: as §1

[4] = target: Nav1.5 (Homo sapiens, UniProt Q14524); test: in vitro; settings: 100% = no change; for Activity of Nav1.5 with peptide, expressed as a percentage of the reference compound: peptide at 0.2 μM; for Activity of Nav1.5 with peptide (percentage of the reference compound): peptide at 20 μM
Chain of Nav1.5 (Q14524 whole entry): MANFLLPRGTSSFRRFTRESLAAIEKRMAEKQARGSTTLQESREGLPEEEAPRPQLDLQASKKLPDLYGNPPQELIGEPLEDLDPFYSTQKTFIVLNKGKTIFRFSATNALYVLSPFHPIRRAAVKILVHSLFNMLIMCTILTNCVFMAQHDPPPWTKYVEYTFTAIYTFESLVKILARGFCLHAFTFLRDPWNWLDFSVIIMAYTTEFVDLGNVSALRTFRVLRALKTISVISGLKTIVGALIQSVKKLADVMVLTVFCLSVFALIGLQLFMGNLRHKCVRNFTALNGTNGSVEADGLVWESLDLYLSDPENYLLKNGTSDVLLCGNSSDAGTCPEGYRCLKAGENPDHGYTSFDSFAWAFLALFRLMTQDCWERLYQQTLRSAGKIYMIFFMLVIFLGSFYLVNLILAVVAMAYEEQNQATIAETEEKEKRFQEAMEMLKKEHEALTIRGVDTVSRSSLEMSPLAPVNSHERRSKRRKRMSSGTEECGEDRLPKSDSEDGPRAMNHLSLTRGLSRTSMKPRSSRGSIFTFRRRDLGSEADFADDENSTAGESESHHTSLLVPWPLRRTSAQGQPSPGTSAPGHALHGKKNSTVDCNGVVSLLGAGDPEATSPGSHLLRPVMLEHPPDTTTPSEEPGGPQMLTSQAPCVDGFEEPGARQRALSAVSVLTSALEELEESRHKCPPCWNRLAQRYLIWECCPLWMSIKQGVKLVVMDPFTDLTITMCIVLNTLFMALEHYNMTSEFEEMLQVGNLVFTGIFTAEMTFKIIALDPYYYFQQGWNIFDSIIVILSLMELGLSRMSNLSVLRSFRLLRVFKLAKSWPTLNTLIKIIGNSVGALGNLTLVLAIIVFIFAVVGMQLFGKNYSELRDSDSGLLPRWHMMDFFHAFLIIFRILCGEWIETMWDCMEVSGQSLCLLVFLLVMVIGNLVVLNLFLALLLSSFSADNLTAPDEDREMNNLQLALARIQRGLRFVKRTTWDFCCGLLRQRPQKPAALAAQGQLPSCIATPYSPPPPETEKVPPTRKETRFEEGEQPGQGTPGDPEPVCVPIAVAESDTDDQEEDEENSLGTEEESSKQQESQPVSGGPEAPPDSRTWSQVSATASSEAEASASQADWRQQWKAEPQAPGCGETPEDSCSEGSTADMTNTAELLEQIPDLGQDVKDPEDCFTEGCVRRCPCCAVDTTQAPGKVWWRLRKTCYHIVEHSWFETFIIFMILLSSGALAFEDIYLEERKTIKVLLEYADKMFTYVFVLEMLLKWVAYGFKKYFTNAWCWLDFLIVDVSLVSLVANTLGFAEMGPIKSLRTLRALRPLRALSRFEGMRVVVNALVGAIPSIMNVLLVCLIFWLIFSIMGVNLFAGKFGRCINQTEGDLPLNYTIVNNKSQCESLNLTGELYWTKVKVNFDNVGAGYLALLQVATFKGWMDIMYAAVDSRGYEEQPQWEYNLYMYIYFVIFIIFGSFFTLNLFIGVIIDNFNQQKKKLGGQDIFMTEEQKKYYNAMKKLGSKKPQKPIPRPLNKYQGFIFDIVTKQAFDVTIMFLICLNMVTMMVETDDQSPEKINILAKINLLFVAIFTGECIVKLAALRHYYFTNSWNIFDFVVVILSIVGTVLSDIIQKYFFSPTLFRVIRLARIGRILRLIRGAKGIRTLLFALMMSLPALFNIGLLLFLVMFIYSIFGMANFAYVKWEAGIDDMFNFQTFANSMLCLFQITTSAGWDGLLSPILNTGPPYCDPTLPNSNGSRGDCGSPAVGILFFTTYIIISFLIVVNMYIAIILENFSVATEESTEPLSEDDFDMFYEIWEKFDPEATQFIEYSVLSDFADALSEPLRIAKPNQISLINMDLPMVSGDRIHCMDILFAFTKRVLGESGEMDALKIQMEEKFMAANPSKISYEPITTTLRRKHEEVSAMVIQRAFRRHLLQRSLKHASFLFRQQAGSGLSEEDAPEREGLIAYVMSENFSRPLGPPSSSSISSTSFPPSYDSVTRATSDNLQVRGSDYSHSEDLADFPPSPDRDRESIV
Outline: as §1

[5] = test system: GABA; test: Ion channel panel (IonWorks Barracuda): GABA; type: cell-based; settings: 100% = no change, <100% = inhibition
Outline: as §1

[6] = target: T3, Kir2.1 (Homo sapiens, UniProt P63252); test: Ion channel panel (IonWorks Barracuda): Kir2.1; type: cell-based; settings: 100% = no change, <100% = inhibition
T3 construct: host or cells: HEK293 or CHO
Outline: as §1

[7] = target: T4, Cav2.2 (Homo sapiens, UniProt Q00975); test: cell-based; settings: 100% = no change, <100% = inhibition
T4 construct: host or cells: HEK293 or CHO
Outline: as §1

[8] = target: T5, Kv2.1 (Homo sapiens, UniProt Q14721); test: cell-based; settings: 100% = no change, <100% = inhibition
T5 construct: host or cells: HEK293 or CHO
Outline: as §1

[9] = target: T6, Cav2.1 (Homo sapiens, UniProt O00555); test: cell-based; settings: 100% = no change, <100% = inhibition
T6 construct: host or cells: HEK293 or CHO
Outline: as §1

[10] = target: T7, Nav1.7 (Homo sapiens, UniProt Q15858); test: cell-based; type: cell-based; settings: 100% = no change; for Activity of Nav1.7 with peptide, expressed as a percentage of the reference compound: peptide at 0.2 μM; for Activity of Nav1.7 with peptide (percentage of the reference compound): peptide at 20 μM
T7 construct: host or cells: HEK293 or CHO
T7 sequence (Q15858 whole entry): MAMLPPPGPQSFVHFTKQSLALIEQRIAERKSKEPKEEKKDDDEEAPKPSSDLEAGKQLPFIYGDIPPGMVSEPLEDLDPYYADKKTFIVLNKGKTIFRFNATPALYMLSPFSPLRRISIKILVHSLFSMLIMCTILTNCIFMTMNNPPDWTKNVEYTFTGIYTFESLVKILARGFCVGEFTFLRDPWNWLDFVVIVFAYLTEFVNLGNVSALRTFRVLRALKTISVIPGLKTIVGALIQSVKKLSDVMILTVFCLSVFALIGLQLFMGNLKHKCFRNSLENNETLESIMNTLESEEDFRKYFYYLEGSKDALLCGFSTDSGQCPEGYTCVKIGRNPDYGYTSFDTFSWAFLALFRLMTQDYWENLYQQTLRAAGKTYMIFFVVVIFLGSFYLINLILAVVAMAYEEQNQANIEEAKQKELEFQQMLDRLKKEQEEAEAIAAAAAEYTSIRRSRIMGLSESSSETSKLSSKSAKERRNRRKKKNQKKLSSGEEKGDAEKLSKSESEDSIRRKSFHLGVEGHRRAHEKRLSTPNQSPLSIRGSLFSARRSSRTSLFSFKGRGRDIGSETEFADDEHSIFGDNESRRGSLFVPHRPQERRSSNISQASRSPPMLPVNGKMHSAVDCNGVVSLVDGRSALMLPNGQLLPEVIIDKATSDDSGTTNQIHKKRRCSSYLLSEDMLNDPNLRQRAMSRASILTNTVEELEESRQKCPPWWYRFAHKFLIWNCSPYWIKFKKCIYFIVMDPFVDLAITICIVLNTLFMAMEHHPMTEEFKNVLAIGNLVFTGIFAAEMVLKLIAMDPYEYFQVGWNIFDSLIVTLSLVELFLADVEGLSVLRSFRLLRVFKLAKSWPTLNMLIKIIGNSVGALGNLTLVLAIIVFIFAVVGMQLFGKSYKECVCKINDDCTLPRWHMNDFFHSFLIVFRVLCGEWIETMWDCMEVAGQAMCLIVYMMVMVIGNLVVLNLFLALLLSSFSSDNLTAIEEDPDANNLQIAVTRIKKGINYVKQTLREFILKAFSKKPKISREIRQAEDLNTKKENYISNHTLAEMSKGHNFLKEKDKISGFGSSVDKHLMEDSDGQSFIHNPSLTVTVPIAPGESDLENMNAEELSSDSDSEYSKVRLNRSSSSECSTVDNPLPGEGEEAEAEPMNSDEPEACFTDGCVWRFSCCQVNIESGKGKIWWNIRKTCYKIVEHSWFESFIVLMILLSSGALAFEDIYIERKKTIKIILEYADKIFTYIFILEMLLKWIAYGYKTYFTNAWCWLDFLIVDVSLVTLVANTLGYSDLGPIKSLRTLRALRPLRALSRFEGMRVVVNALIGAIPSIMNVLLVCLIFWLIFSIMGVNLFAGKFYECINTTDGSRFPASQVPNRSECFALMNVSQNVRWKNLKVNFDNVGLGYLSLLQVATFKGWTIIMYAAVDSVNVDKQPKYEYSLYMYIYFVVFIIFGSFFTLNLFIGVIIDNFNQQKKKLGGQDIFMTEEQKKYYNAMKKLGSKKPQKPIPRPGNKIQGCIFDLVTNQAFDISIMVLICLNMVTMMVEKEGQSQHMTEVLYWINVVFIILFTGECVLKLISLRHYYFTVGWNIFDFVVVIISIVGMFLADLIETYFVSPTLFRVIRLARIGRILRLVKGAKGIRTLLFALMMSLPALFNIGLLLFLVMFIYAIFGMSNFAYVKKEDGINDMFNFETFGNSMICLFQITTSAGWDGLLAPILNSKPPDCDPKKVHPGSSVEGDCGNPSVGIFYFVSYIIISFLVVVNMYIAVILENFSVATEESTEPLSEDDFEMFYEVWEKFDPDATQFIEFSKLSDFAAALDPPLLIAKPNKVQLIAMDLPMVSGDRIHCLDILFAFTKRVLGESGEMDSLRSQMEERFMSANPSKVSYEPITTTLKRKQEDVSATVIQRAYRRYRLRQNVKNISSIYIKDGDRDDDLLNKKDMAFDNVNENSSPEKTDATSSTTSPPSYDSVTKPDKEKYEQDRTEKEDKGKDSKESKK

[11] = target: T8, α3β4 (Homo sapiens, UniProt P30926+P32297); test: Ion channel panel (IonWorks Barracuda): α3β4; type: cell-based; settings: 100% = no change, <100% = inhibition
T8 construct: host or cells: HEK293 or CHO
T8 sequence (P30926 22-498): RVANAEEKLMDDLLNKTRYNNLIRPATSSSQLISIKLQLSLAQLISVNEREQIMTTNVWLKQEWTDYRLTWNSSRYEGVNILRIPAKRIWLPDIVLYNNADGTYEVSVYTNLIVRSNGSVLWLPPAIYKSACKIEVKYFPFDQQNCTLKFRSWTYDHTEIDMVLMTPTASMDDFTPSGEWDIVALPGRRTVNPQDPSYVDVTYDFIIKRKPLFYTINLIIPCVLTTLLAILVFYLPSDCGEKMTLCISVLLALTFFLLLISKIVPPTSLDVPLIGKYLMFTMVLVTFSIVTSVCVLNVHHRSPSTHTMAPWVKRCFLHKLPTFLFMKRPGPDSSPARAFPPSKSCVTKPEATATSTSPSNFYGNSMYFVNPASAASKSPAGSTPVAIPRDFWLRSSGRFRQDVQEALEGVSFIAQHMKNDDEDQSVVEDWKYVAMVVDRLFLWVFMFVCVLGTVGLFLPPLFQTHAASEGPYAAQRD
T8 sequence (P32297 32-505): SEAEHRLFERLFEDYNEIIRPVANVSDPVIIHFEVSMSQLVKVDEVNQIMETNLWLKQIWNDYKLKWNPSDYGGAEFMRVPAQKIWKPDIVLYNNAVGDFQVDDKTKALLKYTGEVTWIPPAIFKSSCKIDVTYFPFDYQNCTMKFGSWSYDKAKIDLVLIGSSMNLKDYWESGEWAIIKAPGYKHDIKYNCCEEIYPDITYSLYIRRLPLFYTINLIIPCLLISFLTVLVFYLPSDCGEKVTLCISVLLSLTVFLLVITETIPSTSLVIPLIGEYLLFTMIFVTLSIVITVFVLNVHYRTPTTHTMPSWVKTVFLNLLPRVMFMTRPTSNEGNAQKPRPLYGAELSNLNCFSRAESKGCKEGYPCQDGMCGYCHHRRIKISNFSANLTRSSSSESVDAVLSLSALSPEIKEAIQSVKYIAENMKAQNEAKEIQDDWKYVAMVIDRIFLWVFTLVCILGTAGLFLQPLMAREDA
Outline: as §1

[12] = target: T9, TRPA1 (Homo sapiens, UniProt O75762); test: Ion channel panel (IonWorks Barracuda): TRPA1; type: cell-based; settings: 100% = no change, <100% = inhibition
T9 construct: host or cells: HEK293 or CHO
Outline: as §1

[13] = target: T10, NR2B (Homo sapiens, UniProt Q13224); test: Ion channel panel (IonWorks Barracuda): NR2B; type: cell-based; settings: 100% = no change, <100% = inhibition
T10 construct: host or cells: HEK293 or CHO
Outline: as §1

[14] = target: T11, Kv1.2 (Homo sapiens, UniProt P16389); test: cell-based; type: cell-based; settings: 100% = no change, <100% = inhibition
T11 construct: host or cells: HEK293 or CHO
Outline: as §1

[15] = target: T12, Kv1.1 (Homo sapiens, UniProt Q09470); test: cell-based; type: cell-based; settings: 100% = no change, <100% = inhibition
T12 construct: host or cells: HEK293 or CHO
Outline: as §1

[16] = target: T13, Kv1.3 (Homo sapiens, UniProt P22001); test: cell-based; type: cell-based; settings: 100% = no change, <100% = inhibition
T13 construct: host or cells: HEK293 or CHO
Outline: as §1

[17] = target: T14, TRPV1 (Homo sapiens, UniProt Q8NER1); test: Ion channel panel (IonWorks Barracuda): TRPV1; type: cell-based; settings: 100% = no change, <100% = inhibition
T14 construct: host or cells: HEK293 or CHO
Outline: as §1

[18] = target: T15, NR2A (Homo sapiens, UniProt Q12879); test: Ion channel panel (IonWorks Barracuda): NR2A; type: cell-based; settings: 100% = no change, <100% = inhibition
T15 construct: host or cells: HEK293 or CHO
Outline: as §1

[19] = first of two Nav1.5 columns (probably TP1)
[20] = second of two Nav1.5 columns (probably TP2)
[21] = first of two Nav1.7 columns (probably TP1)
[22] = second of two Nav1.7 columns (probably TP2)

For “24 (GSSCAKPGEMCMRIKCCDGQCGCNRGTGRCFCK) [compound 24]”, the “Activity of a4b2 with peptide, expressed as a percentage of the reference compound” value ([1]; peptide at 0.2 μM) was 97%, the “Activity of a4b2 with peptide (percentage of the reference compound)” value ([1]; peptide at 20 μM) was 88% and the “Activity of 5HT3a with peptide (percentage of the reference compound)” value [2] was 84%. For the same substance, the “Activity of 5HT3a with peptide, expressed as a percentage of the reference compound” value [2] was 85%, the “Activity of hERG with peptide, expressed as a percentage of the reference compound” value ([3]; peptide at 0.2 μM) was 88% and the “Activity of hERG with peptide (percentage of the reference compound)” value ([3]; peptide at 20 μM) was 78%. The “Activity of Nav1.5 with peptide, expressed as a percentage of the reference compound” value [4, 19] was 94%, the “Activity of Nav1.5 with peptide, expressed as a percentage of the reference compound” value [4, 20] was 95% and the “Activity of Nav1.5 with peptide (percentage of the reference compound)” value [4, 19] was 99%. For the same substance, the “Activity of Nav1.5 with peptide (percentage of the reference compound)” value [4, 20] was 104%, the “Activity of GABA with peptide, expressed as a percentage of the reference compound” value ([5]; peptide at 0.2 μM) was 96% and the “Activity of GABA with peptide (percentage of the reference compound)” value ([5]; peptide at 20 μM) was 114%. The “Activity of Kir2.1 with peptide, expressed as a percentage of the reference compound” value ([6]; peptide at 0.2 μM) was 104%, the “Activity of Kir2.1 with peptide (percentage of the reference compound)” value ([6]; peptide at 20 μM) was 90% and the “Activity of Cav2.2 with peptide, expressed as a percentage of the reference compound” value ([7]; peptide at 0.2 μM) was 120%. For the same substance, the “Activity of Cav2.2 with peptide (percentage of the reference compound)” value ([7]; peptide at 20 μM) was 102%, the “Activity of Kv2.1 with peptide, expressed as a percentage of the reference compound” value ([8]; peptide at 0.2 μM) was 91% and the “Activity of Kv2.1 with peptide (percentage of the reference compound)” value ([8]; peptide at 20 μM) was 81%. For the same substance, the “Activity of Cav2.1 with peptide, expressed as a percentage of the reference compound” value ([9]; peptide at 0.2 μM) was 92%, the “Activity of Cav2.1 with peptide (percentage of the reference compound)” value ([9]; peptide at 20 μM) was 121% and the “Activity of Nav1.7 with peptide, expressed as a percentage of the reference compound” value [10, 21] was 84%. For the same substance, the “Activity of Nav1.7 with peptide, expressed as a percentage of the reference compound” value [10, 22] was 97%, the “Activity of Nav1.7 with peptide (percentage of the reference compound)” value [10, 21] was 80% and the “Activity of Nav1.7 with peptide (percentage of the reference compound)” value [10, 22] was 83%. The “Activity of a3b4 with peptide, expressed as a percentage of the reference compound” value ([11]; peptide at 0.2 μM) was 101%, the “Activity of a3b4 with peptide (percentage of the reference compound)” value ([11]; peptide at 20 μM) was 87% and the “Activity of TRPA1 with peptide, expressed as a percentage of the reference compound” value ([12]; peptide at 0.2 μM) was 132%. For the same substance, the “Activity of TRPA1 with peptide (percentage of the reference compound)” value ([12]; peptide at 20 μM) was 107%, the “Activity of NR2B with peptide, expressed as a percentage of the reference compound” value ([13]; peptide at 0.2 μM) was 102% and the “Activity of NR2B with peptide (percentage of the reference compound)” value ([13]; peptide at 20 μM) was 92%. The “Activity of Kv1.2 with peptide, expressed as a percentage of the reference compound” value ([14]; peptide at 0.2 μM) was 74%, the “Activity of Kv1.2 with peptide (percentage of the reference compound)” value ([14]; peptide at 20 μM) was 83% and the “Activity of Kv1.1 with peptide, expressed as a percentage of the reference compound” value ([15]; peptide at 0.2 μM) was 65%. For the same substance, the “Activity of Kv1.1 with peptide (percentage of the reference compound)” value ([15]; peptide at 20 μM) was 69%, the “Activity of Kv1.3 with peptide, expressed as a percentage of the reference compound” value ([16]; peptide at 0.2 μM) was 94% and the “Activity of Kv1.3 with peptide (percentage of the reference compound)” value ([16]; peptide at 20 μM) was 73%. For the same substance, the “Activity of TRPV1 with peptide, expressed as a percentage of the reference compound” value ([17]; peptide at 0.2 μM) was 131%, the “Activity of TRPV1 with peptide (percentage of the reference compound)” value ([17]; peptide at 20 μM) was 102% and the “Activity of NR2A with peptide, expressed as a percentage of the reference compound” value ([18]; peptide at 0.2 μM) was 102%. For the same substance, the “Activity of NR2A with peptide (percentage of the reference compound)” value ([18]; peptide at 20 μM) was 100%.
